Experimental data: the supplement of paper PMC9112550, “Optimization of the antimicrobial peptide Bac7 by deep mutational scanning” (BMC Biology, 2022)

Tested on: Escherichia coli TOP10
Experiment: shrunken log2 fold change of peptide-encoding DNA abundance (4.5 h post-induction vs induction); higher = less antimicrobial activity (less host growth inhibition)
Settings: time post-induction: 4.5 h; library: site-saturation at positions 5, 18, 19, 20
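Also: peptides expressed intracellularly from a pBAD plasmid library in pooled LB shake-flask culture, induced with 0.3% L-arabinose, DNA abundance read by NGS, three biological replicates, DESeq2 with apeglm shrinkage.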

| Sequence | shrunken log2 fold change |
| --- | --- |
| RRIRYRPPRLPRPRPRPKWEPRP | -0.263 |
| RRIRRRPPRLPRPRPRPRMNPRP | 0.545 |
| RRIRNRPPRLPRPRPRPMNLPRP | 0.0249 |
| RRIRRRPPRLPRPRPRPAAAPRP | 0.941 |
| RRIRERPPRLPRPRPRPAPSPRP | 0.116 |
| RRIRPRPPRLPRPRPRPARAPRP | 0.438 |
| RRIRYRPPRLPRPRPRPHDMPRP | -0.00277 |
| RRIRFRPPRLPRPRPRPCGYPRP | -0.0542 |
| RRIRVRPPRLPRPRPRPPTNPRP | 1.14 |
| RRIRPRPPRLPRPRPRPGAFPRP | 0.293 |
| RRIRFRPPRLPRPRPRPNLYPRP | -0.716 |
| RRIRDRPPRLPRPRPRPQMPPRP | -0.486 |
| RRIRSRPPRLPRPRPRPSMRPRP | 0.369 |
| RRIRCRPPRLPRPRPRPWWKPRP | -0.334 |
| RRIRIRPPRLPRPRPRPRHLPRP | -0.458 |
| RRIRYRPPRLPRPRPRPRDNPRP | -0.712 |
| RRIRLRPPRLPRPRPRPKTDPRP | -0.233 |
| RRIRTRPPRLPRPRPRPPQQPRP | 0.211 |
| RRIRPRPPRLPRPRPRPYHSPRP | -0.659 |
| RRIRTRPPRLPRPRPRPAGLPRP | 0.0286 |
| RRIRQRPPRLPRPRPRPYDIPRP | 0.0432 |
| RRIRHRPPRLPRPRPRPMCCPRP | 0.101 |
| RRIRRRPPRLPRPRPRPIFNPRP | -0.124 |
| RRIRSRPPRLPRPRPRPHISPRP | -0.035 |
| RRIRHRPPRLPRPRPRPYGGPRP | -0.91 |

| Sequence | shrunken log2 fold change |
| --- | --- |
| RRIRYRPPRLPRPRPRPRCAPRP | -0.199 |
| RRIRARPPRLPRPRPRPQWKPRP | 0.179 |
| RRIRIRPPRLPRPRPRPWCHPRP | -0.122 |
| RRIRIRPPRLPRPRPRPNWVPRP | -0.231 |
| RRIRGRPPRLPRPRPRPSHPPRP | 0.372 |
| RRIRARPPRLPRPRPRPILSPRP | 0.376 |
| RRIRHRPPRLPRPRPRPKNQPRP | -0.16 |
| RRIRFRPPRLPRPRPRPENHPRP | -0.84 |
| RRIRNRPPRLPRPRPRPYCAPRP | -1.05 |
| RRIRLRPPRLPRPRPRPSTCPRP | -0.179 |
| RRIRWRPPRLPRPRPRPVLQPRP | 0.177 |
| RRIRGRPPRLPRPRPRPVTLPRP | 0.149 |
| RRIRDRPPRLPRPRPRPDKGPRP | -0.0944 |
| RRIRMRPPRLPRPRPRPARWPRP | 1.49 |
| RRIRDRPPRLPRPRPRPRNWPRP | 0.615 |
| RRIRWRPPRLPRPRPRPKLWPRP | 1.06 |
| RRIRCRPPRLPRPRPRPKPFPRP | -0.0386 |
| RRIRFRPPRLPRPRPRPMFRPRP | 0.0591 |
| RRIRLRPPRLPRPRPRPCSGPRP | 0.0583 |
| RRIRLRPPRLPRPRPRPARRPRP | 0.348 |
| RRIRHRPPRLPRPRPRPDLPPRP | 0.107 |
| RRIRTRPPRLPRPRPRPEEPPRP | 0.0165 |
| RRIRGRPPRLPRPRPRPWIQPRP | 0.0532 |
| RRIRLRPPRLPRPRPRPQGTPRP | 0.0413 |
| RRIRRRPPRLPRPRPRPAFAPRP | 0.456 |

| Sequence | shrunken log2 fold change |
| --- | --- |
| RRIRRRPPRLPRPRPRPPAYPRP | 0.618 |
| RRIRYRPPRLPRPRPRPMINPRP | -1.18 |
| RRIRNRPPRLPRPRPRPHMHPRP | -0.582 |
| RRIRQRPPRLPRPRPRPSKRPRP | -0.188 |
| RRIRERPPRLPRPRPRPDRMPRP | -0.0498 |
| RRIRERPPRLPRPRPRPCRVPRP | -0.25 |
| RRIRARPPRLPRPRPRPDVFPRP | 0.176 |
| RRIRCRPPRLPRPRPRPCIAPRP | -0.11 |
| RRIRWRPPRLPRPRPRPGQGPRP | 0.522 |
| RRIRARPPRLPRPRPRPKLMPRP | 0.357 |
| RRIRYRPPRLPRPRPRPLSLPRP | -1.1 |
| RRIRDRPPRLPRPRPRPFYCPRP | -0.0803 |
| RRIRIRPPRLPRPRPRPQLSPRP | -0.565 |
| RRIRLRPPRLPRPRPRPEGTPRP | 0.241 |
| RRIRQRPPRLPRPRPRPFSEPRP | -0.477 |
| RRIRTRPPRLPRPRPRPPTKPRP | 0.674 |
| RRIRDRPPRLPRPRPRPFARPRP | 0.579 |
| RRIRRRPPRLPRPRPRPVMEPRP | 0.305 |
| RRIRRRPPRLPRPRPRPCTPPRP | -0.0236 |
| RRIRFRPPRLPRPRPRPESVPRP | 0.257 |
| RRIRTRPPRLPRPRPRPDPYPRP | 0.001 |
| RRIRRRPPRLPRPRPRPNRQPRP | -0.031 |
| RRIRHRPPRLPRPRPRPDKVPRP | 0.1 |
| RRIRFRPPRLPRPRPRPFTAPRP | -0.662 |
| RRIRGRPPRLPRPRPRPIVEPRP | 0.194 |

| Sequence | shrunken log2 fold change |
| --- | --- |
| RRIRCRPPRLPRPRPRPPHKPRP | 0.68 |
| RRIRGRPPRLPRPRPRPPVYPRP | 0.352 |
| RRIRARPPRLPRPRPRPMIQPRP | 0.0771 |
| RRIRLRPPRLPRPRPRPQIYPRP | -0.17 |
| RRIRARPPRLPRPRPRPALWPRP | 0.833 |
| RRIRSRPPRLPRPRPRPEFTPRP | 0.171 |
| RRIRRRPPRLPRPRPRPPKKPRP | 1.12 |
| RRIRMRPPRLPRPRPRPIVWPRP | -0.0994 |
| RRIRVRPPRLPRPRPRPACLPRP | -0.444 |
| RRIRGRPPRLPRPRPRPWRMPRP | -0.000462 |
| RRIRLRPPRLPRPRPRPLIIPRP | -0.631 |
| RRIRCRPPRLPRPRPRPELKPRP | 0.0478 |
| RRIRIRPPRLPRPRPRPFVIPRP | 0.0556 |
| RRIRRRPPRLPRPRPRPFFLPRP | 0.0467 |
| RRIRFRPPRLPRPRPRPNQNPRP | -0.443 |
| RRIRVRPPRLPRPRPRPYNVPRP | -0.0185 |
| RRIRNRPPRLPRPRPRPYHSPRP | -0.654 |
| RRIRKRPPRLPRPRPRPDPWPRP | 0.422 |
| RRIRLRPPRLPRPRPRPYCQPRP | -0.797 |
| RRIRFRPPRLPRPRPRPLNGPRP | 0.073 |
| RRIRSRPPRLPRPRPRPTGWPRP | 1.01 |
| RRIRWRPPRLPRPRPRPEKMPRP | -0.0237 |
| RRIRRRPPRLPRPRPRPYDTPRP | 0.0504 |
| RRIRHRPPRLPRPRPRPPHAPRP | 0.334 |
| RRIRKRPPRLPRPRPRPVAIPRP | 0.265 |

| Sequence | shrunken log2 fold change |
| --- | --- |
| RRIRPRPPRLPRPRPRPVYEPRP | -0.0626 |
| RRIRRRPPRLPRPRPRPELKPRP | 0.254 |
| RRIRDRPPRLPRPRPRPFSAPRP | -0.36 |
| RRIRWRPPRLPRPRPRPLAHPRP | 0.29 |
| RRIRERPPRLPRPRPRPEPLPRP | -0.091 |
| RRIRSRPPRLPRPRPRPSRAPRP | 0.281 |
| RRIRCRPPRLPRPRPRPHWYPRP | -0.714 |
| RRIRGRPPRLPRPRPRPQQWPRP | 0.067 |
| RRIRTRPPRLPRPRPRPMLWPRP | 0.143 |
| RRIRTRPPRLPRPRPRPERVPRP | 0.296 |
| RRIRSRPPRLPRPRPRPRMMPRP | 0.0975 |
| RRIRCRPPRLPRPRPRPTCHPRP | 0.0303 |
| RRIRRRPPRLPRPRPRPDFKPRP | 0.151 |
| RRIRMRPPRLPRPRPRPPYAPRP | 0.291 |
| RRIRERPPRLPRPRPRPVCEPRP | 0.162 |
| RRIRYRPPRLPRPRPRPTLCPRP | -0.239 |
| RRIRNRPPRLPRPRPRPDLGPRP | 0.0328 |
| RRIRKRPPRLPRPRPRPGKQPRP | 0.599 |
| RRIRGRPPRLPRPRPRPPLYPRP | 0.459 |
| RRIRERPPRLPRPRPRPHDFPRP | -0.0616 |
| RRIRDRPPRLPRPRPRPWNSPRP | -0.237 |
| RRIRCRPPRLPRPRPRPAIHPRP | -0.248 |
| RRIRTRPPRLPRPRPRPWFQPRP | -0.195 |
| RRIRHRPPRLPRPRPRPRPCPRP | 0.227 |
| RRIRERPPRLPRPRPRPLSFPRP | 0.329 |

| Sequence | shrunken log2 fold change |
| --- | --- |
| RRIRFRPPRLPRPRPRPHKVPRP | -0.196 |
| RRIRDRPPRLPRPRPRPMLFPRP | -0.0792 |
| RRIRIRPPRLPRPRPRPGNNPRP | -0.00577 |
| RRIRERPPRLPRPRPRPEEEPRP | 0.102 |
| RRIRERPPRLPRPRPRPFAFPRP | -0.0942 |
| RRIRSRPPRLPRPRPRPLFFPRP | -0.172 |
| RRIRTRPPRLPRPRPRPNQLPRP | -0.101 |
| RRIRDRPPRLPRPRPRPFGSPRP | 0.0468 |
| RRIRNRPPRLPRPRPRPFANPRP | -0.0288 |
| RRIRARPPRLPRPRPRPEPHPRP | 0.374 |
| RRIRKRPPRLPRPRPRPFRSPRP | 0.0452 |
| RRIRARPPRLPRPRPRPNGGPRP | -0.01 |
| RRIRSRPPRLPRPRPRPNTCPRP | -0.808 |
| RRIRARPPRLPRPRPRPGVQPRP | 0.0878 |
| RRIRIRPPRLPRPRPRPSWDPRP | -0.462 |
| RRIRKRPPRLPRPRPRPSVHPRP | -0.118 |
| RRIRWRPPRLPRPRPRPRFRPRP | 0.314 |
| RRIRQRPPRLPRPRPRPKESPRP | 0.0355 |
| RRIRPRPPRLPRPRPRPPNNPRP | 0.414 |
| RRIRKRPPRLPRPRPRPNIRPRP | -0.0456 |
| RRIRERPPRLPRPRPRPSKAPRP | -0.129 |
| RRIRLRPPRLPRPRPRPLMEPRP | -0.392 |
| RRIRDRPPRLPRPRPRPMTAPRP | -0.0214 |
| RRIRRRPPRLPRPRPRPLAWPRP | 0.226 |
| RRIRRRPPRLPRPRPRPWFTPRP | 0.0255 |
